The results in this text go back to US20240216513A1, “FATTY ACID-BIFUNCTIONAL DEGRADER CONJUGATES AND THEIR METHODS OF USE” (Novartis AG, priority 2021, published 2024).

For one data set, the target named is T1, BTK C481S (Homo sapiens, UniProt Q06187, C481S).
T1 construct: endogenous in cells; host or cells: TMD8 BTK C481S mutant tumour xenografts in mice
The experiment in a line: PD screen in TMD8 BTK C481S mutant tumor-bearing mice, BTK levels and compound concentrations in blood and tumor. The conditions noted are these: 25 umol/kg. Type of data set: in vivo, mouse. The gist of the method: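 Single compound injection in mice bearing TMD8 BTK C481S tumors, groups of 2, with blood and tumor sampled at day 0, 4, 7 and sometimes 10. Compound levels measured by UPLC/MS-MS and BTK levels by Meso Scale Discovery.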

The nature of data set [1]: In vivo pharmacokinetic study in rats (i.v. or s.c.), FAC and payload in blood. Details: species or system rat. The protocol: (§1) Pharmacokinetic studies were conducted in male C57/B16 mice; male Sprague-Dawley rats; male Beagle dogs and male Cynomolgus monkeys. 3 animals per group were used for each study performed. All studies were performed in accordance with local animal welfare regulations.
(§2) […] Serial 30 µL blood samples were collected via venipuncture of the tail vein in mouse, and via the cannulated jugular vein in rats at defined timepoints to 216 hours (into EDTA coated tubes).
(§3) Each blood sample was precipitated with acetonitrile containing internal standard; samples were mixed and centrifuged (20 minutes 4000 RPM at 4° C.). Supernatant was transferred to a microwell plate and evaporated under nitrogen at 60° C. Residue was resuspended in acetonitrile/water (7:3 v/v); plate sealed and transferred to an ultrasonic bath for 3 minutes, prior to analysis. Quantification was performed by LC-MS/MS (SciexAP16500 Q-trap, Shimadzu Nexera X2) using a Phenomenex Polar RP analytical column (2.5 μm particle size; 50×2 mm). The mobile phase consisted of solvent A (0.1% formic acid in water) and solvent B (0.1% formic acid in acetonitrile). The fatty acid conjugate and API were detected using multiple reaction monitoring.
(§4) Data analysis and calculation of non-compartmental pharmacokinetic parameters was
(§5) performed using an in-house analysis. Following intravenous administration whole blood clearance was calculated by the dose administered divided by AUC0-inf. Volume of distribution at steady state was calculated as MRT*CL, where MRT is the mean residence time, calculated by AUMC0-inf/AUC0-inf. The half-life (t1/2) of the terminal elimination phase was calculated by 0.693/λ. For both intravenous and subcutaneous administration, the systemic exposures were determined by calculating the area under the blood concentration time curve (AUC) from time zero to the last observed quantifiable concentration (AUClast) by using the linear trapezoidal method and normalised to dose. Extrapolated AUC (AUC0-inf) is calculated by addition of AUClast and AUCtlast-inf; where AUCtlast-inf is calculated based on Clast/λ. The slope of the terminal elimination phase was estimated by linear regression of the terminal data points (minimum 3 points) from a natural log concentration versus time plot of the data. Bioavailability was calculated as the dose normalized ratio of […] AUCinf to intravenous AUCinf (100*[SC AUCinf/SC dose]/[IV AUCinf/IV dose]). Following subcutaneous administration Cmax is calculated as the average maximum observed peak concentration and Tmax is the time associated with the determined Cmax.
(§6) For PK experiments, non-tumor bearing mice or rats were treated once (10 mL/kg) with a compound either i.v. or s.c. Serial blood samplings from the tail vein (5-20 μl) were collected during the course of the experiment. For PK/PD experiments in tumor-bearing mice, compound was administered once (10 mL/kg) either i.v. or s.c. Animals were randomized into groups of n=3 and tissue samples were collected at several time points. At the times indicated, animals were anaesthetized by exposure to 2-3% v/v isoflurane in medical oxygen. They were sacrificed without recovering from anesthetic after blood sampling into commercially prepared EDTA coated tubes (Milian, cat #TOM-14C) in order to extract plasma. The tissues were excised, weighted and rapidly frozen in liquid nitrogen. Later, tumors were cryogenic dry pulverized with the CryoPrep™ system (model CP-02, Covaris). For efficacy experiments in ectopic tumor-bearing mice, animals were randomized into groups of n=6 for a mean tumor size of 100 mm^3 and compound was administered either i.v. q3w or s.c. q2w. When implanted in brain, animals were randomized into groups of n=4 for a mean bioluminescence of 1.0-2.0E+06 [p/s]/[ρW/cm^2] and compound was administered i.v. qw. Tumor response were reported with the measures of tumor volumes or bioluminescence from the treatment start. […]

A short description of data set [2]: In vivo pharmacokinetic study in Beagle dogs (i.v. or s.c.), FAC and payload in blood. Further details: species or system dog. The conditions noted are these: analyte payload after FAC i.v. dose 1 umol/kg. The protocol:
as §1
(§7) Between 1 and 10 µM/kg FAC was administered either intravenously or subcutaneously as a solution in 10 mM PBS with NaOH (dose volume 0.4 mL/kg in dog and monkey s.c. and 0.2 mL/kg i.v. in monkey). Serial 100 µL blood samples were collected via venipuncture of the cephalic vein at defined timepoints to 336 hours (into EDTA coated tubes).
as §3, §4, §5

A short description of data set [3]: BTK FAC plasma stability assay, mouse plasma. Format: in vitro ADME. The note with it: for Plasma stability (h) mouse: incubation to 24 h. The gist of the method: (§8)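 Compound from a 500 µM acetonitrile:water working solution was spiked into K3-EDTA plasma or Dulbecco's PBS and incubated with shaking at 38 °C. Samples taken at 0, 2, 6 and 24 h were precipitated with cold acetonitrile containing glyburide internal standard. Semi-quantitative LC-MS/MS used analyte:internal standard peak area ratios.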

A short description of data set [4]: BTK FAC plasma stability assay, rat plasma. Format: in vitro ADME. The note with it: for Plasma stability (h) rat: incubation to 24 h. The essentials:
as §8

Data set [5] can be described thus: BTK FAC plasma stability assay, dog plasma. Type of data set: in vitro ADME.
Data set [6] is described as follows: In vivo pharmacokinetic study in Cynomolgus monkeys (i.v. or s.c.), FAC and payload in blood. Further details: species or system cynomolgus monkey. The conditions noted are these: analyte FAC, FAC i.v. dose 1 umol/kg. The protocol:
as §1, §7, §3, §4, §5

A short description of data set [7]: BTK FAC plasma stability assay, PBS buffer arm. The note with it: for Plasma stability (h) PBS: incubation to 24 h. Format: physicochemical. The gist of the method:
as §8

Data set [8] is described as follows: BTK FAC plasma stability assay, cyno plasma. Type of data set: in vitro ADME, cynomolgus monkey.
The nature of data set [9]: In vivo pharmacokinetic study in mice (i.v. or s.c.), FAC and payload in blood. Further details: species or system mouse. The conditions noted are these: male, C57/B16, mouse, in vivo, iv; analyte FAC; FAC i.v. dose 10 umol/kg; read-out: FAC AUC-uM.h mouse. The protocol: as §1, §2, §3, §4, §5, §6

T1 sequence (Q06187 whole entry C481S): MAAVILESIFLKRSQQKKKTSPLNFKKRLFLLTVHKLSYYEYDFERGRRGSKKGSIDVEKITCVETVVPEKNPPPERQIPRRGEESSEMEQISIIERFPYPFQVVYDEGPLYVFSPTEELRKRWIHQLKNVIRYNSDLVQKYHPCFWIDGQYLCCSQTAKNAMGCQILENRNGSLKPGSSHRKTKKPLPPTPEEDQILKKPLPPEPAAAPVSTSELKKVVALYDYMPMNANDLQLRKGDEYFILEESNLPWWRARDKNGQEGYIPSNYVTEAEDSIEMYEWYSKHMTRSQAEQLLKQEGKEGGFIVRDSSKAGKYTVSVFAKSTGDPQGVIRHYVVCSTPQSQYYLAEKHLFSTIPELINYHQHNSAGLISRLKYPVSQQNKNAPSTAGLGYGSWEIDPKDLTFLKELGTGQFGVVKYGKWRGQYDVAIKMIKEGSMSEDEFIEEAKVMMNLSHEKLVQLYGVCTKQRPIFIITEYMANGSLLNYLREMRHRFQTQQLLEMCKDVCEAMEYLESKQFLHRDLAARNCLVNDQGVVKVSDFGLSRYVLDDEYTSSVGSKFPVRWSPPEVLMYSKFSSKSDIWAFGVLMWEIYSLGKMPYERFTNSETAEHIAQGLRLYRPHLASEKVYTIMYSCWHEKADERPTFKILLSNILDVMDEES

Turning to `COc1ccc(C(=O)N2CCC3(CCN(CCc4ccc(-c5cc6c(-c7cc(F)cc(NC(=O)c8ccc(C(C)(C)OC(=O)CNC(=O)CCOCCOCCOCCOCCOCCOCCOCCOCCOCCOCCOCCOCCNC(=O)C(CCCCCCCCCCCCCCP(=O)(O)O)(CCCCCCCCCCCCCCP(=O)(O)O)C(=O)O)cc8F)c7C)ncnc6[nH]5)cc4)CC3)CC2)cc1N1CCC(=O)NC1=O` [Example A28, 2-(4-((3-(6-(4-(2-(9-(3-(2,4-dioxotetrahydropyrimidin-1(2H)-yl)-4-methoxybenzoyl)-3,9-diazaspiro[5.5]undecan-3-yl)ethyl)phenyl)-7H-pyrrolo[2,3-d]pyrimidin-4-yl)-5-fluoro-2-methylphenyl)carbamoyl)-3-fluorophenyl)-2-methyl-4,7,47-trioxo-48,48-bis(14-phosphonotetradecyl)-3,10,13,16,19,22,25,28,31,34,37,40,43-tridecaoxa-6,46-diazanonatetracontan-49-oic acid], the “Duration of BTK degradation in mouse ≥90%” value on BTK C481S (i.v.) and on BTK C481S (s.c.) was 10 days each time. Further, in [1] (analyte FAC, FAC i.v. dose 10 umol/kg, read-out: FAC C0-uM rat), the C0 was 57 µM. The “Payload C0-uM Rat” value in [1] (analyte payload after FAC i.v. dose 10 umol/kg) came out at 0.21 µM. The AUC – broadly, concentration integrated over time – in [1] (male, Sprague-Dawley, rat, in vivo, iv, analyte FAC, FAC i.v. dose 10 umol/kg, read-out: FAC AUC-uM.h rat) stood at 704 µM·h.
In the case of `CCCCCCCCCCCN(C(=O)CCCCCCCCCC(=O)O)[C@@H](CCC(=O)NCCOCCOCCOCCOCCOCCOCCOCCOCCOCCOCCOCCOCCC(=O)NCC(=O)OC(C)(C)c1ccc(C(=O)Nc2cc(F)cc(-c3ncnc4[nH]c(-c5ccc(CCN6CCC7(CC6)CCN(C(=O)c6ccc(OC)c(N8CCC(=O)NC8=O)c6)CC7)cc5)cc34)c2C)c(F)c1)C(=O)O` [Example A2, (S)-50-Carboxy-2-(4-((3-(6-(4-(2-(9-(3-(2,4-dioxotetrahydropyrimidin-1(2H)-yl)-4-methoxybenzoyl)-3,9-diazaspiro[5.5]undecan-3-yl)ethyl)phenyl)-7H-pyrrolo[2,3-d]pyrimidin-4-yl)-5-fluoro-2-methylphenyl)carbamoyl)-3-fluorophenyl)-2-methyl-4,7,47,52-tetraoxo-51-undecyl-3,10,13,16,19,22,25,28,31,34,37,40,43-tridecaoxa-6,46,51-triazadohexacontan-62-oic acid], the “Payload C0-uM dog” value in data set [2] came to 0.2 µM. In data set [3], the “% Release of degrader after 24 h mouse” value is 3.4% and the “Plasma stability (h) mouse” value came out at 12.3 h. In data set [4], the “% Release of degrader after 24 h rat” value is 8.9% and the “Plasma stability (h) rat” value amounted to 18.1 h. In data set [5], the “Plasma stability (h) dog” value is listed as greater than 48 h and the “% Release of degrader after 24 h dog” value is recorded as 7.3%. Further, in [6] (read-out: FAC C0-uM cyno), the C0 worked out at 56.6 µM. Further, the AUC in data set [6] (male, cynomolgus monkey, whole blood, iv, read-out: FAC AUC-uM.h cyno) was found to be 590 µM·h. Moreover, in [7], the “% Release of degrader after 24 h PBS” value is given as 0.8% and the “Plasma stability (h) PBS” value is greater than 48 h.
As to `CCCCCCCCCCCN(C(=O)CCCCCCCCCC(=O)O)C(CCC(=O)NCCOCCOCCOCCOCCOCCOCCOCCOCCOCCOCCOCCOCCC(=O)NCc1ccc(CC(=O)OC(C)(C)c2ccc(C(=O)Nc3cc(F)cc(-c4ncnc5[nH]c(-c6ccc(CCN7CCC8(CC7)CCN(C(=O)c7ccc(OC)c(N9CCC(=O)NC9=O)c7)CC8)cc6)cc45)c3C)c(F)c2)cc1)C(=O)O` (stereo not shown) [Example A23, 46-Carboxy-1-(4-(2-((2-(4-((3-(6-(4-(2-(9-(3-(2,4-dioxotetrahydropyrimidin-1(2H)-yl)-4-methoxybenzoyl)-3,9-diazaspiro[5.5]undecan-3-yl)ethyl)phenyl)-7H-pyrrolo[2,3-d]pyrimidin-4-yl)-5-fluoro-2-methylphenyl)carbamoyl)-3-fluorophenyl)propan-2-yl)oxy)-2-oxoethyl)phenyl)-3,43,48-trioxo-47-undecyl-6,9,12,15,18,21,24,27,30,33,36,39-dodecaoxa-2,42,47-triazaoctapentacontan-58-oic acid], the “Payload C0-uM dog” value in data set [2] came to 0.59 µM. In addition, in [8], the “Plasma stability (h) cyno” value was greater than 48 h. Further, the “% Release of degrader after 24 h cyno” value in [8] (24 h) was determined as 0.6%. Further, in data set [3], the “% Release of degrader after 24 h mouse” value is 5.8% and the “Plasma stability (h) mouse” value is reported as greater than 48 h. Moreover, in data set [4], the “% Release of degrader after 24 h rat” value turned out to be 1.1% and the “Plasma stability (h) rat” value is on record as greater than 48 h. In addition, in [5], the “Plasma stability (h) dog” value was greater than 48 h and the “% Release of degrader after 24 h dog” value came out at 0.8%. Besides, the AUC in data set [9] came to 856 µM·h. In addition, in data set [7], the “% Release of degrader after 24 h PBS” value turned out to be 0.2% and the “Plasma stability (h) PBS” value was greater than 48 h.
